According to article PMC11940275:

These sequences were tested against SARS-CoV-2 spike protein, Omicron BA.2 (on SmBiT-BA.2 pseudovirus) (SARS-CoV-2 Omicron BA.2) (UniProt P0DTC2).

Sequence	IC50 [nM]
CGCAGCACCCAAGAACAAGGACTGCTTAGGATTGCGATAGGTTCGG [46-mer aptamer]	700
ATCCAGAGTGACGCAGCATTTCATCGGGTCCAAAAGGGGCTGCTCGGGATTGCGGATATGGACACGT [67-mer aptamer]	1640
ATCCAGAGTGACGCAGCATCGAGTGGCTTGTTTGTAATGTAGGGTTCCGGTCGTGGGTTGGACACGGTGGCTTAGT [76-mer aptamer]	3610
